Test results as given in patent publication US20220062341A1 (KIRIN, published 2022).

B1: modified TCR ba16 (TCR)
TCR alpha: DVYITDKTVLDMRSMDFKSNSAVAWSNKSDFACANAFNNSIIPEDTFFPSPESSCDVKLVEKSFETDTNLNFQNLSVIGFRILLLKVAGFNLLMTLRLWSS
TCR beta: AKPVTQIVSAEAWGRADCGFTSESYQQGVLSATILYEILLGKATLYAVLVSALVLMAMVKRKDSRG
B2: modified TCR ba17 (TCR)
TCR alpha: KSNSAVAWSNKSDFACANAFNNSIIPEDTFFPSPESSCDVKLVEKSFETDTNLNFQNLSVIGFRILLLKVAGFNLLMTLRLWSS
TCR beta: AKPVTQIVSAEAWGRADCGFTSESYQQGVLSATILYEILLGKATLYAVLVSALVLMAMVKRKDSRG
B3: modified TCR ba8 (TCR)
TCR alpha: DVYITDKTVLDMRSMDFKSNSAVAWSNKSDFACANAFNNSIIPEDTFFPSPESSCDVKLVEKSFETDTNLNFQNLSVIGFRILLLKVAGFNLLMTLRLWSS
TCR beta: EDLKNVFPPEVAVFEPSEAEISHTQKATLVCLATGFYPDHVELSWWVNGKEVHSGVSTDPQPLKEQPALNDSRYCLSSRLRVSATFWQNPRNHFRCQVQFYGLSENDEWTQDRAKPVTQIVSAEAWGRADCGFTSESYQQGVLSATILYEILLGKATLYAVLVSALVLMAMVKRKDSRG
B4: modified TCR ba6 (TCR)
TCR alpha: NIQNPDPAVYQLRDSKSSDKSVCLFTDFDSQTNVSQSKDSDVYITDKTVLDMRSMDFKSNSAVAWSNKSDFACANAFNNSIIPEDTFFPSPESSCDVKLVEKSFETDTNLNFQNLSVIGFRILLLKVAGFNLLMTLRLWSS
TCR beta: AKPVTQIVSAEAWGRADCGFTSESYQQGVLSATILYEILLGKATLYAVLVSALVLMAMVKRKDSRG
B5: modified TCR ba18 (TCR)
TCR alpha: IPEDTFFPSPESSCDVKLVEKSFETDTNLNFQNLSVIGFRILLLKVAGFNLLMTLRLWSS
TCR beta: AKPVTQIVSAEAWGRADCGFTSESYQQGVLSATILYEILLGKATLYAVLVSALVLMAMVKRKDSRG
B6: full-length TCR (ba1) (TCR)
chain: MLSLLLLLLGLGSVFSAVISQKPSRDICQRGTSLTIQCQVDSQVTMMFWYRQQPGQSLTLIATANQGSEATYESGFVIDKFPISRPNLTFSTLTVSNMSPEDSSIYLCSVDGQGNTGELFFGEGSRLTVLEDLKNVFPPEVAVFEPSEAEISHTQKATLVCLATGFYPDHVELSWWVNGKEVHSGVSTDPQPLKEQPALNDSRYCLSSRLRVSATFWQNPRNHFRCQVQFYGLSENDEWTQDRAKPVTQIVSAEAWGRADCGFTSESYQQGVLSATILYEILLGKATLYAVLVSALVLMAMVKRKDSRGSGSGEGRGSLLTCGDVEENPGPMACPGFLWALVISTCLEFSMAQTVTQSQPEMSVQEAETVTLSCTYDTSESDYYLFWYKQPPSRQMILVIRQEAYKQQNATENRFSVNFQKAAKSFSLKISDSQLGDAAMYFCAYWSNNNARLMFGDGTQLVVKPNIQNPDPAVYQLRDSKSSDKSVCLFTDFDSQTNVSQSKDSDVYITDKTVLDMRSMDFKSNSAVAWSNKSDFACANAFNNSIIPEDTFFPSPESSCDVKLVEKSFETDTNLNFQNLSVIGFRILLLKVAGFNLLMTLRLWSS
B7: modified TCR ba11 (TCR)
TCR alpha: SVCLFTDFDSQTNVSQSKDSDVYITDKTVLDMRSMDFKSNSAVAWSNKSDFACANAFNNSIIPEDTFFPSPESSCDVKLVEKSFETDTNLNFQNLSVIGFRILLLKVAGFNLLMTLRLWSS
TCR beta: ATLVCLATGFYPDHVELSWWVNGKEVHSGVSTDPQPLKEQPALNDSRYCLSSRLRVSATFWQNPRNHFRCQVQFYGLSENDEWTQDRAKPVTQIVSAEAWGRADCGFTSESYQQGVLSATILYEILLGKATLYAVLVSALVLMAMVKRKDSRG
B8: modified TCR ba3 (TCR)
TCR alpha: NIQNPDPAVYQLRDSKSSDKSVCLFTDFDSQTNVSQSKDSDVYITDKTVLDMRSMDFKSNSAVAWSNKSDFACANAFNNSIIPEDTFFPSPESSCDVKLVEKSFETDTNLNFQNLSVIGFRILLLKVAGFNLLMTLRLWSS
TCR beta: ATLVCLATGFYPDHVELSWWVNGKEVHSGVSTDPQPLKEQPALNDSRYCLSSRLRVSATFWQNPRNHFRCQVQFYGLSENDEWTQDRAKPVTQIVSAEAWGRADCGFTSESYQQGVLSATILYEILLGKATLYAVLVSALVLMAMVKRKDSRG
B9: modified TCR ba15 (TCR)
TCR alpha: SVCLFTDFDSQTNVSQSKDSDVYITDKTVLDMRSMDFKSNSAVAWSNKSDFACANAFNNSIIPEDTFFPSPESSCDVKLVEKSFETDTNLNFQNLSVIGFRILLLKVAGFNLLMTLRLWSS
TCR beta: AKPVTQIVSAEAWGRADCGFTSESYQQGVLSATILYEILLGKATLYAVLVSALVLMAMVKRKDSRG
B10: modified TCR ba13 (TCR)
TCR alpha: KSNSAVAWSNKSDFACANAFNNSIIPEDTFFPSPESSCDVKLVEKSFETDTNLNFQNLSVIGFRILLLKVAGFNLLMTLRLWSS
TCR beta: ATLVCLATGFYPDHVELSWWVNGKEVHSGVSTDPQPLKEQPALNDSRYCLSSRLRVSATFWQNPRNHFRCQVQFYGLSENDEWTQDRAKPVTQIVSAEAWGRADCGFTSESYQQGVLSATILYEILLGKATLYAVLVSALVLMAMVKRKDSRG
B11: modified TCR ba12 (TCR)
TCR alpha: DVYITDKTVLDMRSMDFKSNSAVAWSNKSDFACANAFNNSIIPEDTFFPSPESSCDVKLVEKSFETDTNLNFQNLSVIGFRILLLKVAGFNLLMTLRLWSS
TCR beta: ATLVCLATGFYPDHVELSWWVNGKEVHSGVSTDPQPLKEQPALNDSRYCLSSRLRVSATFWQNPRNHFRCQVQFYGLSENDEWTQDRAKPVTQIVSAEAWGRADCGFTSESYQQGVLSATILYEILLGKATLYAVLVSALVLMAMVKRKDSRG
B12: modified TCR ba14 (TCR)
TCR alpha: IPEDTFFPSPESSCDVKLVEKSFETDTNLNFQNLSVIGFRILLLKVAGFNLLMTLRLWSS
TCR beta: ATLVCLATGFYPDHVELSWWVNGKEVHSGVSTDPQPLKEQPALNDSRYCLSSRLRVSATFWQNPRNHFRCQVQFYGLSENDEWTQDRAKPVTQIVSAEAWGRADCGFTSESYQQGVLSATILYEILLGKATLYAVLVSALVLMAMVKRKDSRG
B13: modified TCR ba7 (TCR)
TCR alpha: SVCLFTDFDSQTNVSQSKDSDVYITDKTVLDMRSMDFKSNSAVAWSNKSDFACANAFNNSIIPEDTFFPSPESSCDVKLVEKSFETDTNLNFQNLSVIGFRILLLKVAGFNLLMTLRLWSS
TCR beta: EDLKNVFPPEVAVFEPSEAEISHTQKATLVCLATGFYPDHVELSWWVNGKEVHSGVSTDPQPLKEQPALNDSRYCLSSRLRVSATFWQNPRNHFRCQVQFYGLSENDEWTQDRAKPVTQIVSAEAWGRADCGFTSESYQQGVLSATILYEILLGKATLYAVLVSALVLMAMVKRKDSRG
B14: modified TCR ba2 (TCR)
TCR alpha: NIQNPDPAVYQLRDSKSSDKSVCLFTDFDSQTNVSQSKDSDVYITDKTVLDMRSMDFKSNSAVAWSNKSDFACANAFNNSIIPEDTFFPSPESSCDVKLVEKSFETDTNLNFQNLSVIGFRILLLKVAGFNLLMTLRLWSS
TCR beta: EDLKNVFPPEVAVFEPSEAEISHTQKATLVCLATGFYPDHVELSWWVNGKEVHSGVSTDPQPLKEQPALNDSRYCLSSRLRVSATFWQNPRNHFRCQVQFYGLSENDEWTQDRAKPVTQIVSAEAWGRADCGFTSESYQQGVLSATILYEILLGKATLYAVLVSALVLMAMVKRKDSRG
B15: modified TCR ba5 (TCR)
TCR alpha: NIQNPDPAVYQLRDSKSSDKSVCLFTDFDSQTNVSQSKDSDVYITDKTVLDMRSMDFKSNSAVAWSNKSDFACANAFNNSIIPEDTFFPSPESSCDVKLVEKSFETDTNLNFQNLSVIGFRILLLKVAGFNLLMTLRLWSS
TCR beta: FRCQVQFYGLSENDEWTQDRAKPVTQIVSAEAWGRADCGFTSESYQQGVLSATILYEILLGKATLYAVLVSALVLMAMVKRKDSRG
B16: modified TCR ba4 (TCR)
TCR alpha: NIQNPDPAVYQLRDSKSSDKSVCLFTDFDSQTNVSQSKDSDVYITDKTVLDMRSMDFKSNSAVAWSNKSDFACANAFNNSIIPEDTFFPSPESSCDVKLVEKSFETDTNLNFQNLSVIGFRILLLKVAGFNLLMTLRLWSS
TCR beta: VSTDPQPLKEQPALNDSRYCLSSRLRVSATFWQNPRNHFRCQVQFYGLSENDEWTQDRAKPVTQIVSAEAWGRADCGFTSESYQQGVLSATILYEILLGKATLYAVLVSALVLMAMVKRKDSRG
B17: modified TCR ba9 (TCR)
TCR alpha: KSNSAVAWSNKSDFACANAFNNSIIPEDTFFPSPESSCDVKLVEKSFETDTNLNFQNLSVIGFRILLLKVAGFNLLMTLRLWSS
TCR beta: EDLKNVFPPEVAVFEPSEAEISHTQKATLVCLATGFYPDHVELSWWVNGKEVHSGVSTDPQPLKEQPALNDSRYCLSSRLRVSATFWQNPRNHFRCQVQFYGLSENDEWTQDRAKPVTQIVSAEAWGRADCGFTSESYQQGVLSATILYEILLGKATLYAVLVSALVLMAMVKRKDSRG

Assays:
CD3E = CD3E (human, UniProt P07766 23-207); experiment: cell-based or functional assay
Sequence of CD3E (P07766 23-207): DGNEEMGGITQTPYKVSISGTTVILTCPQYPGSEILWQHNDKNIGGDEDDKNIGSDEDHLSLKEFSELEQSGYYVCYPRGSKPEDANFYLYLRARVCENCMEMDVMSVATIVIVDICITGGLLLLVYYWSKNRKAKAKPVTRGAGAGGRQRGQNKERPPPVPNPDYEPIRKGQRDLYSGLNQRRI

[1] = biological target: CD3 subunits (CD3E, CD3G, CD3D, CD3Z) (human, UniProt P07766 23-207; P09693 23-182; P04234 22-171; P20963 22-164); experiment: cell-based or functional assay
Sequence of CD3 subunits (CD3E, CD3G, CD3D, CD3Z) (P07766 23-207, chain 1 of 4): as the sequence (P07766 23-207) above
Sequence of CD3 subunits (CD3E, CD3G, CD3D, CD3Z) (P09693 23-182, chain 2 of 4): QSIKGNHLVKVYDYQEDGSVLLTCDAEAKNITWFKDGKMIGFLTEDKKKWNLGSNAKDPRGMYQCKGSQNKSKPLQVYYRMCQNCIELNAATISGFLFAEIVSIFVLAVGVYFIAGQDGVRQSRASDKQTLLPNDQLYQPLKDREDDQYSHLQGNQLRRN
Sequence of CD3 subunits (CD3E, CD3G, CD3D, CD3Z) (P04234 22-171, chain 3 of 4): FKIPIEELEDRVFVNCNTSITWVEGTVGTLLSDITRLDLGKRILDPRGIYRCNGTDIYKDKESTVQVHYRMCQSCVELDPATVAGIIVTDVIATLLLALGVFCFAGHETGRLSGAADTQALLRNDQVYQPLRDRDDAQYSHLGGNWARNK
Sequence of CD3 subunits (CD3E, CD3G, CD3D, CD3Z) (P20963 22-164, chain 4 of 4): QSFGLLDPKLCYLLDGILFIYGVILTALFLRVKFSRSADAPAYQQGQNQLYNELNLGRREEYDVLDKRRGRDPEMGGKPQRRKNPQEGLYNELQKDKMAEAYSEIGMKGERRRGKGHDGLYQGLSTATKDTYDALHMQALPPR

Binder | CD3E-positive proportion [%] (Avg, n = 2), CD3-stably expressing 293T cells (CD3E) | expression of CD3 (CD3-positive proportion), cells differentiated from iPS-derived HPCs (FF-WJs524), Day 21 [1] [%]
B1 | 70.7 | –
B2 | 81.9 | –
B3 | 90.3 | –
B4 | 47.6 | –
B5 | 89.5 | –
B6 | 88.7 | 99.8
B7 | 83.2 | –
B8 | 82.3 | –
B9 | 56.5 | –
B10 | 40.4 | –
B11 | 51 | –
B12 | 46.4 | –
B13 | 88.6 | –
B14 | 84.5 | 50.4
B15 | 48.4 | –
B16 | 10.2 | 38.3
B17 | 90.7 | 99.5
